In a protein production outcome set (Wang et al. 2014):

Assay: label from the status in PepcDB records
In the case of “LSENTTPFGSVSQHDTQVNCQLQLNAANHLIVNEQTRNCFEYFLTQYGEKSLTQIDQDIKNYFTQSLPQPARDQAQDLWQRYLKYREELGNLKEPAIAKTDIAYYRAVFTSRQMLRQRFFSATEIAGLFGSEDIYNQYTLERMAILNNSKLSEIEKAKQLKALFDQLPQDWKANLEQLSKLDDLKQLTTSIKKNGGSAQELHDMRTNLVGHDATARLEQLDVERSNWKSNVTQYLDERQTILNSNMSDTAKQNAISALRSKNFTAPQDQIRVQAFESAKDQ”, the protein production is reported as “failed”.
For “LTEAVSLMEANIEEPLSTDDIAYYVGVSRRQLERLFKQYLGTVPSKYYLELRLNRARQLLQQTSKSIVQIGLACGFSSGPHFSSTYRNHFNITPREERAQ”, the protein production was “not failed”.
For “LTTEGGKALVDFAVKRNLQYIHFDAGWYGFEYDKVSDATTVTLDPRRNPDINALNLKEVVAYAKERGIGVILYVNQRALQQQLDEILPLYKSWGIAGIKFGFVQVGSQVWTKWMHEAIKKCADYGLMVDVHDEYRPTGFSRTYPNLM”, the protein production was “failed”.
With “LVPLESDLSRAADLLNAGRKVAILAGRGALEAKEALRETAELLGAPVAKALLGKAVLPDDDPLTTGGIGILGTAPSQEIMQQCDTLLIIGSTFPYIEYYPRPNTAAGIQIDHDPQRIGLRYPVEVGLVGEAGETLRMLNKRLKRKQDRSFLERAQEQTRNWRRELRAMEGDRS” the protein production was “failed”.
For “MAAAAAGPASSQRLFQSFSDALIDGDPQAALEELTKALEQNPDDAQYYCQRAYCHILLGKYRDGIADVKKSLELNPNNCTALLRKGICEYHEKDYASALETFAEGQKLDSTDTNFDTWIKRCQEIQNGSESEVSASQRTQSKIKYDWYQTESHVIITLMIKSVQKNDVRVGFSERELSALVKIPAGEDYSLKLRLLHPIIPEQSTFKVLSTKIEIKMKKPEAVRWEKLEGQGDEPTPKQFTADVKNMYPSSSHYTRNWDKLVGEIKEEEKNEKLEGDAALNKLFQQIYSDGSDEVKRAMNKSFMESGGTVLSTNWSDVGKRKVEINPPDDMEWKQY”, the protein production was “failed”.
With “MAAAALREQLNALLSSMFASGLVDEQFQQLQMLQEDGGTPGFVAEVVTLFCDDADRIISELAALLDQPIVDFDKVDAYVHQLKGSSASVGAQKVKFTCMQFRQLCQDKNRDGCIMALAVVRNEFYDLRNKFQTMLQLEQQIQAQQ” the protein production was “not failed”.
For “MAAAVPQRAWTVEQLRSEQLPKKDIIKFLQEHGSDSFLAEHKLLGNIKNVAKTANKDHLVTAYNHLFETK”, the protein production was “not failed”.
In the case of “MAADGIFRSIFEGCISGLDSAIERRPYHKNCGCALHDKSSGAGKNQNQRRPPSCRRHGSSESISFPIRRSWSEGNIMAMNLFSSSSSSSNLQSLSSSSSLSNLASDLPVDNAATEEPSRSNKQLRWTIDEGEDD”, the protein production is reported as “failed”.
In the case of “MAADHTDVLIVGAGPTGLFAGFYVGMRGLSFRFVDPLPEPGGQLTALYPEKYIYDVAGFPKVYAKDLVKGLVEQVAPFNPVYSLGERAETLEREGDLFKVTTSQGNAYTAKAVIIAAGVGAFEPRRIGAPGEREFEGRGVYYAVKSKAEFQGKRVLIVGGGDSAVDWALNLLDTARRITLIHRRPQFRAHEASVKELMKAHEEGRLEVLTPYELRRVEGDERVRWAVVFHNQTQEELALEVDAVLILAGYITKLGPLANWGLALEKNKIKVDTTMATSIPGVYACGDIVTYPGKLPLIVLGFGEAAIAANHAAAYANPALKVNPGHSSEKAAPGT”, the protein production is reported as “not failed”.
For “MAAGAAEAAVAAVEEVGSAGQFEELLRLKAKSLLVVHFWAPWAPQCAQMNEVMAELAKELPQVSFVKLEAEGVPEVSEKYEISSVPTFLFFKNSQKIDRLDGAHAPELTKKVQRHAS”, the protein production was “not failed”.
For “MAAGRHCRAPHRCQTHPRLIALGHNHRMNAQLTQELPEFPTWLNARPSTLQEHRGRALVLAFVNASSVWCAERLAELAHWQARSPGRLQVIVVQVPRFDSERLPQRSLKQLRGHGVSAPILLDKDWETWRRFGIESWPTLVLLDAYGRERQRLVGVTGDLDKALTALCEGQPPPSDADLHGVAEREPEPHLALRFPTGLAATEDRLYVADTGHHRVLECTHSGRVLRQFGHGNADLIDGGVGEAAFRRPQGLALERDQLYVADTGNHALRRINLRSGQVDTLCGTGRSGEPVEGPLASPGGSALNYPQGLAIADNQVLIAMAGDNRIWSYHLGRAALTARAGTGALEIRDGSGHLAAFAQPAGLASVQQVAYVCDGLGSSIRTMQLRGDLVQTLVGGQGTWQFGDQDGPRSTARLQFPQAIALAADSPLLWIADTGNGRLRCLRLGGGELTTVALPRRLHGPAGLAVAAGAVWIAETDAHAILRYDLASGALSDVSIDE”, the protein production was “failed”.
With “MAAGSLLTLLDDIATLLDDVALATKKTAGVLGDDLALNAQQVTGVSADRELPVVWAVAKGSLLNKAILVPAALLISAFAPWAILPLLMIGGAFLCFEGFEKIAHKWLHPEAGEEHDQRKQAATDASVDMVAFEKERIKGAIRTDFILSAEIIVLALGVVSARPFMDQVGVLVIVAVLITVGVYGLVAGIVKLDDLGLHLKRTASSVAQTIGSALLWLAPVLMKVLSIVGTAAMFMVGGGILVHGLPFAHHWADGVTEAASAAVGGLSMIVPTLIDAIAGIIAGAVLVLIVTLVGKVWKAARE” the protein production was “not failed”.
In the case of “MAAGTDSTGTFATRHSANECLQLQERLWLLEQIAGSASRTALRTTVARGNECRLASCIDLNPEGRPILPSCSALGRAGAAARCCAGRRGRSRARARPAGQTGGGSRVAAECRHISHRGGRGIPVSGGGGAWRSGGASNGRGVFLRPAGTGGSRLATGARQANLGCGPRPACPPAMDQDYERRLLRQIIIQNENTVPCVSEMRRTLTPANSPVSSPSKHGDRFIPSRAGANWSVNFHRINENEKSPSQNRKAKDATSDNGKDGLAYSALLKNELLGAGIEKVQDPQTEDRRLQPSTPEHKGLFTYSLSSKRSSPDDGNDVSPYSLSPVSNKSQKLLRSPRKPTRKISKIPFKVLDAPELQDDFYLNLVDWSSLNVLSVGLGTCVYLWSACTSQVTRLCDLSVEGDSVTSVGWSERGNLVAVGTHKGFVQIWDAAAGKKLSVLEGHTARVGALAWNADQLSSGSRDRMILQRDIRTPALQSERRLQGHRQEVCGLKWSTDHQLLASGGNDNKLLVWNHSSLSPVQQYTEHLAAVKAIAWSPHQHGLLASGGGTADRCIRFWNTLTGQPLQCIDTGSQVCNLAWSKHANELVSTHGYSQNQILVWKYPSLTQVAKLTGHSYRVLYLAMSPDGEAIVTGAGDETLRFWNVFSKTRSTKESVSVLNLFTRIR”, the protein production is reported as “failed”.
With “MAAGTFTAQNKVRPGVYINFKSEPQAAGTLGERGIVSMPLILSWGEPGKMITIEAGDDVFPKLGYSIMDAQLRLINEALKRAKTLLLYRLNAGTKAAVTVGNLTVTAKWGGARGNDITLVIQENIDDETKFDVSTLVDGAELDKQTVSDIAGLAANDWVIFSGTGALTETAGAPLINGSDGAVTNQAYIDYLAAVEIFDFNTIALPSTDDALKATFTAFAKRLRDDEGKKIQVVLENYPAADYEGVISVKNGVVLADGTILTAAQATAWVAGATAGARVNESLTYQGYDEAVDVAPRYTNAQIIAALQAGEFLFTASDNQALVEQDINTLTSFTADKGKQFAKNRVIRVLDGINNDFVRIFSKFYIGKVSNNADGRNLLKSECINYMNTLQDIDAIKNFDGQTDLTVQSGNDVDAVYIEAYAWPVDSIEKIYVRVRIKLEHHHHHH” the protein production was “not failed”.
With “MAAIDAALKAGEKILSIYEDPKSDFEIERKADNSPLTIADRKAHEAIVAILNETPFPVLSEEGKHMDYAVRRGWDTLWIVDPLDGTKEFIKRNGEFTVNIALVQNAVPVMGVIYVPVKKELYFAVEGTGAYKCSGIVGLEDEGVTLQQMIEKSERMPLADARDHFIAVASRSHLTPETETYIADLKKKHGNVELISSGSSIKICLVAEGKADVYPRFAPTMEWDTAAGHAIARAAGMEVYQAGKEEPLRYNKEDLLNPWFIVEAKRER” the protein production was “not failed”.
With “MAAKRLAVLCIFLLPNTQFRQLRLAETAEELPQLLREAEKASWTYLEFLESITRYELAKREAKSLEKRMKWARFPFVKSLDEFELRGQNVLTARQLSQLRELSWLEQQYNLILLGPPGIGKTYIAIGLGLEAVYRGFHVYFATMGELVQLLKSEEYLNKSKVQLKRIRNADLVIIDDLMYMAMDQREANLFFHLINHLYERSSIILTSNKSPEEWGHLIGDQGITTAILDRLLHRVEVIHGGENEESHRMKNRKSIFSAEVLEHHHHHH” the protein production was “failed”.
